Results reported in PMC10017356 (2023).
No end group written: not given here. *: point of attachment. Dansyl = CN(C)c1cccc2c(S(=O)(=O)*)cccc12

T1: Presenilin-1 peptide (Homo sapiens)
T1 chain: Dansyl-AFHQFYI

B1: X11 PDZ1 651-744 (protein)
chain: SENCKDVFIEKQKGEILGVVIVESGWGSILPTVIIANMMHGGPAEKSGKLNIGDQIMSINGTSLVGLPLSTCQSIIKGLKNQSRVKLNIVRCPP
B2: X11 PDZ1-PDZ2-ΔC 651-827 (protein)
chain: SENCKDVFIEKQKGEILGVVIVESGWGSILPTVIIANMMHGGPAEKSGKLNIGDQIMSINGTSLVGLPLSTCQSIIKGLKNQSRVKLNIVRCPPVTTVLIRRPDLRYQLGFSVQNGIICSLMRGGIAERGGVRVGHRIIEINGQSVVATPHEKIVHILSNAVGEIHMKTMPAAMYRL

Target: T1, Presenilin-1 peptide
Assay: stopped-flow kinetics (FRET)

Binder | Kd
B1 | 5.5 µM
B2 | 7 µM
